Laboratory results reported in the supplement of paper PMC9732359.
± gives the uncertainty stated by the source.

Assay: protein stability index of a GFP-peptide fusion (yeast GPS) (PSI 1-4); higher = more stable; sorted into four equal gates, so the index is relative within each strain
In short: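 Yeast carrying a pooled library were grown to mid-log phase in leucine-free medium. Each library plasmid expresses Cherry and has a tiled 17-residue yeast protein peptide fused downstream of GFP. Cells were sorted into four equal gates by GFP/Cherry ratio, and plasmids from each gate were PCR-amplified, Illumina-sequenced and assigned to strains by barcode. Summing, across gates, the read frequency times the gate number gave each peptide's protein stability index.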

Sequence	protein stability index (doa10∆)	protein stability index (pdr5∆)	protein stability index (ubr1∆)	protein stability index (san1∆)
ERVQSDENKDDELVKLL [SRP68]	3.52 ± 0.17	3.42 ± 0.12	2.96 ± 0.23	–
FKKLNSKNMSKSPSLTA [YMR153W/NUP53]	2.21 ± 0.065	2.38 ± 0.048	2.13 ± 0.071	2.19 ± 0.067
PNALKPLSESLRLVDDD [RRP6]	3.15 ± 0.091	3.34 ± 0.081	3.23 ± 0.055	2.82 ± 0.093
SHSLALNEITNSKVNKL [DSN1]	2.33 ± 0.04	2.57 ± 0.04	2.54 ± 0.033	2.48 ± 0.035
KEALLGQLLKDHLIIEP [ARP9]	1.79 ± 0.12	1.51 ± 0.077	2.45 ± 0.094	1.18 ± 0.16
SNTRTMTYKNKLTVCFD [MED2]	2.51 ± 0.073	2.53 ± 0.11	1.35 ± 0.056	1.46 ± 0.24
MARRPARCYRYQKNKPY [RPL10]	2.17 ± 0.092	2.13 ± 0.11	2.4 ± 0.1	2.32 ± 0.092
LYQSLTPQQLQMIQQRH [SNF5]	1.77 ± 0.037	2.24 ± 0.04	2.08 ± 0.033	1.69 ± 0.053
IKTRTVHELSKRVHTLL [ISW2]	1.37 ± 0.091	1.49 ± 0.072	1.49 ± 0.049	2.18 ± 0.17
RTPVIISLRNNHKIIAR [SMD2]	1.77 ± 0.042	1.97 ± 0.035	1.81 ± 0.044	2.13 ± 0.06
RLNYLYQISAYQTRARQ [RPR2]	1.56 ± 0.034	1.84 ± 0.037	1.89 ± 0.035	1.85 ± 0.054
SRKRGGENVFLKRISDG [SIR3]	3.35 ± 0.086	3.29 ± 0.072	3.24 ± 0.037	3.07 ± 0.052
SVRLFSFLDPLNYGNIC [YJL039C/NUP192]	1.88 ± 0.053	2.21 ± 0.069	2 ± 0.063	2.47 ± 0.061
RSISEPSINLDPDNTSF [ESC2]	2.9 ± 0.074	3 ± 0.057	3.165 ± 0.031	3.07 ± 0.058
RGGGHHSFEDAHTPMLQ [FAS1]	3.3 ± 0.26	3.48 ± 0.21	–	–
IDIDKLIQLGVKPLESS [SRP72]	3.19 ± 0.086	2.87 ± 0.068	2.82 ± 0.054	3.04 ± 0.055
KSKGDVDIKGEDLHEKN [NUT1]	3.32 ± 0.27	–	–	3.44 ± 0.15
LIQEHDSRKNREQSSND [BRN1]	3.38 ± 0.078	3.38 ± 0.06	3.45 ± 0.094	3.19 ± 0.081
HPKLIKNKSGKIFVETK [FAS1]	2.3 ± 0.067	2.76 ± 0.067	2.67 ± 0.1	2.47 ± 0.13
SQIRLYAKFKRNTMMIQ [RGR1]	2.44 ± 0.21	2.37 ± 0.11	2.61 ± 0.13	2.14 ± 0.11
ITNKHQEGLAKFGACVA [RPN2]	1.78 ± 0.054	1.97 ± 0.038	2.51 ± 0.035	2.54 ± 0.092
LSISVAAEPMDSKMIQD [SNU114]	2.73 ± 0.061	3.03 ± 0.081	3.18 ± 0.11	2.84 ± 0.077
YMFANLEFSIYHRLSNK [CSN12]	2.13 ± 0.072	2.15 ± 0.076	2.25 ± 0.082	2.42 ± 0.11
PKNFGIGQAVQPKRNLS [RPL8A]	2.74 ± 0.064	2.74 ± 0.056	2.69 ± 0.05	2.78 ± 0.043
LLSKLLLKHPFKAIHGS [YCS4]	2.37 ± 0.051	2.09 ± 0.05	2.44 ± 0.035	1.67 ± 0.059
KLVEIIWNDVVYGEGTS [YJL039C/NUP192]	3.46 ± 0.11	3.26 ± 0.11	3.35 ± 0.058	3.39 ± 0.098

Sequence	protein stability index (doa10∆)	protein stability index (pdr5∆)	protein stability index (ubr1∆)	protein stability index (san1∆)
DGSQQNLQQDKTNFQDV [REC8]	3.23 ± 0.071	3.38 ± 0.054	3.3 ± 0.038	3.42 ± 0.068
RQIRPIMERIKSSLSLR [ITC1]	1.26 ± 0.06	1.65 ± 0.075	1.42 ± 0.054	1.35 ± 0.087
EDAKYVINLKQIAKFVV [RPT1]	1.61 ± 0.12	2.4 ± 0.2	1.96 ± 0.1	1.8 ± 0.21
FPESIWKDFTVEIAFLF [YCG1]	2.25 ± 0.06	2.43 ± 0.05	2.29 ± 0.049	2.33 ± 0.067
LLSQFGIKVLPETCLFV [YML103C/NUP188]	2.1 ± 0.075	1.55 ± 0.058	1.33 ± 0.059	1.18 ± 0.14
LNDHIDDFEVNVASLVR [GRR1]	3.29 ± 0.087	3.26 ± 0.13	3.08 ± 0.087	2.31 ± 0.25
ISKHSKQAIYTRATASE [RPS25A]	1.98 ± 0.056	2.03 ± 0.045	1.85 ± 0.039	1.97 ± 0.072
GDRQRLGEEHPLQVARC [RPT1]	1.43 ± 0.097	1.32 ± 0.19	1.53 ± 0.15	3.25 ± 0.22
SWSSSAAVIMRCKIYFF [PCI8]	1.24 ± 0.055	1.71 ± 0.058	1.28 ± 0.047	1.34 ± 0.11
KTLCARAVANRTDATFI [RPT1]	1.39 ± 0.12	1.37 ± 0.12	1.37 ± 0.18	1.26 ± 0.15
EFMAGFNIISMTLKEMY [SMC4]	–	2.83 ± 0.24	3.21 ± 0.089	3.21 ± 0.11
NLFKINSIDVPIRINST [YMR129W/POM152]	1.89 ± 0.044	2.2 ± 0.042	2.17 ± 0.033	2.02 ± 0.058
HLKHENANDETTAVEDE [RPB4]	2.92 ± 0.067	3.08 ± 0.093	3.17 ± 0.14	3.17 ± 0.086
MKQPYVFVKKHHELIKV [SSN2]	1.33 ± 0.072	1.27 ± 0.051	1.2 ± 0.051	1.21 ± 0.08
KELFGEDEDEDLFGDSN [SSN2]	3.32 ± 0.2	3.54 ± 0.2	3.67 ± 0.2	3.21 ± 0.27
VEQGYEDAFNFWFDKLV [YCG1]	3.05 ± 0.12	2.66 ± 0.14	2.38 ± 0.2	3.38 ± 0.1
GNPLSIGTLEEIIDDDH [RPT2]	3.28 ± 0.1	3.43 ± 0.14	3.24 ± 0.17	3.14 ± 0.076
VVTRSKEAFEEEIKQSA [SMC1]	3.05 ± 0.14	3.07 ± 0.13	3.1 ± 0.089	3.11 ± 0.25
MDETQTRAKIGGLNDPR [RPO21]	2.8 ± 0.1	2.24 ± 0.11	1.85 ± 0.22	2.3 ± 0.1
QVRKDLGNVIVPNILSL [NUT1]	2.23 ± 0.1	2.55 ± 0.088	2.62 ± 0.07	2.46 ± 0.093
DTRSTQGPIVADKNCAK [PUP1]	3.13 ± 0.11	3.59 ± 0.12	3.04 ± 0.086	3.15 ± 0.1
LMLKKLKNSIMSFIFPS [YML031W/NDC1]	2.21 ± 0.058	2.3 ± 0.066	2.37 ± 0.062	2.28 ± 0.073
NTNPSPLKTQTKNGTPN [GAL11]	2.91 ± 0.059	2.9 ± 0.05	2.94 ± 0.04	2.58 ± 0.049
LQDEVMNIKPVQKQTRA [RPS2]	2.91 ± 0.2	3.12 ± 0.18	3.63 ± 0.19	2.42 ± 0.14
QNQGGAQAPFDIDDLAF [ROX3]	3.55 ± 0.13	–	3.37 ± 0.065	3.4 ± 0.11
IYNSTDSNSEILNFLNQ [YML103C/NUP188]	3.1 ± 0.2	2.72 ± 0.067	2.9 ± 0.076	2.71 ± 0.055
